Data on two molecules can be found in patent publication US11912970B2, “Universal microfluidic culture system to analyze and control cell dynamics” (The University of Chicago, priority 2017, dated 2024).

Holding throughout (format): cell-based, mouse
One assay relates to mice HSCs. As to the kind of experiment: M-CSF induced differentiation of mice HSCs on chip. Particulars: media replacement through the buffering layer. The text has this: FIG. 11B(I) depicts the culture of mice HSCs cells in suspension mode, and (II) depicts the differentiation of mice HSCs cells by introducing M-CSF differentiation media.
Murine hematopoietic stem cells (HSC) are isolated by FACSAria III flow cytometer (BD Biosciences) as Lin−/c-Kit+/Sca-1+/CD48−/CD150+/CD34− (lineage, Lin: CD3e/CD11b/CD19/CD41/B220/Gr-1/Ter-119), which are approximately 50% pure HSCs. Macrophage colony-stimulating factor (M-CSF), a myeloid cytokine released during infection and inflammation, is employed to induce HSCs differentiation. Human CD34+ cells were isolated from mononuclear cells using EasySepTM human CD34 positive selection kit (Stemcell Technologies, Vancouver, BC, Canada). CD34+CD38−CD45RA−CD90+CD49f+ HSCs were sorted using a FACSAria III flow cytometer (BD Biosciences). Pro- and anti-inflammatory cytokines including TNF, IFN[…], IL-6, IP10 and MCP-1 are introduced into the cellular environment as single ligand and in combination. Embryonic NSCs with Hes-GFP and Dcx-RFP reporters were isolated at embryonic day 13.5 from a transgenic mice carrying Hes-GFP and Dcx-RFP using standard protocol (Woo, et al., 2009; Basak, et al., 2007). The resulting primary cells were verified to carry both Hes5-GFP and Dcx-RFP after isolation and allowed to grow for few passages before use in the experiments (Giachino, et al., 2009). […]

For assay [1], the system named is Hes5-GFP expression in NSCs. As to the kind of experiment: NSCs Hes5-GFP expression under sequential ligand inputs (permutation test and decision tree analysis). Particulars: sequential input. The text has this:
(§1) Murine hematopoietic stem cells (HSC) are isolated by FACSAria III flow cytometer (BD Biosciences) as Lin−/c-Kit+/Sca-1+/CD48−/CD150+/CD34− (lineage, Lin: CD3e/CD11b/CD19/CD41/B220/Gr-1/Ter-119), which are approximately 50% pure HSCs. Macrophage colony-stimulating factor (M-CSF), a myeloid cytokine released during infection and inflammation, is employed to induce HSCs differentiation. Human CD34+ cells were isolated from mononuclear cells using EasySepTM human CD34 positive selection kit (Stemcell Technologies, Vancouver, BC, Canada). CD34+CD38−CD45RA−CD90+CD49f+ HSCs were sorted using a FACSAria III flow cytometer (BD Biosciences). […]
(§2) For image acquisition, a Nikon Ti-ECLIPSE microscope with an automated translation stage and a digital CMOS camera (ORCA-Flash 4.0, Hamamatsu, Japan) was used. […] Bright field and fluorescence images were acquired and analyzed using a customized MATLAB program (Mathworks, […]). The algorithm extracts single cell traces including position, nuclear and cytoplasm fluorescence level. For example, the 3T3 cell nuclear area in each image is identified via the fluorescent nuclear marker GFP, and then the mean value of the nuclear intensity of the p65-DsRed marker is measured, and plotted as a function of time. […]

For assay [2], the system named is NSCs. As to the kind of experiment: NSCs proliferation (cell number) under combinatorial ligand inputs (permutation test and decision tree analysis). The conditions noted are these: combinatorial input, decision tree, without PACAP.
Source text: as §1, §2

Assay [3] concerns NSCs. Description: NSCs proliferation (cell number) under sequential ligand inputs (permutation test and decision tree analysis). The conditions noted are these: sequential input, ligand added at day 1.
Source text: as §1, §2

B1: M-CSF: myeloid cytokine released during infection and inflammation, employed to induce HSCs differentiation (protein, UniProt P09603 33-554, looked up)
Macrophage colony-stimulating …: EEVSEYCSHMIGSGHLQSLQRLIDSQMETSCQITFEFVDQEQLKDPVCYLKKAFLLVQDIMEDTMRFRDNTPNAIAIVQLQELSLRLKSCFTKDYEEHDKACVRTFYETPLQLLEKVKNVFNETKNLLDKDWNIFSKNCNNSFAECSSQDVVTKPDCNCLYPKAIPSSDPASVSPHQPLAPSMAPVAGLTWEDSEGTEGSSLLPGEQPLHTVDPGSAKQRPPRSTCQSFEPPETPVVKDSTIGGSPQPRPSVGAFNPGMEDILDSAMGTNWVPEEASGEASEIPVPQGTELSPSRPGGGSMQTEPARPSNFLSASSPLPASAKGQQPADVTGTALPRVGPVRPTGQDWNHTPQKTDHPSALLRDPPEPGSPRISSLRPQGLSNPSTLSAQPQLSRSHSSGSVLPLGELEGRRSTRDRRSPAEPEGGPASEGAARPLPRFNSVPLTDTGHERQSEGSFSPQLQESVFHLLVPSVILVLLAVGGLLFYRWRRRSHQEPQRADSPLEQPEGSPLTQDDRQVELPV
As for B1, in the assay with mice HSCs, the “response of HSCs to ligand input” value is “instantaneous response”.

B2: Jagged: signaling ligand whose receptor is highly expressed during mouse forebrain development (protein, UniProt Q9QXX0 34-1218, looked up)
Protein jagged-1: QFELEILSMQNVNGELQNGNCCGGVRNPGDRKCTRDECDTYFKVCLKEYQSRVTAGGPCSFGSGSTPVIGGNTFNLKASRGNDRNRIVLPFSFAWPRSYTLLVEAWDSSNDTIQPDSIIEKASHSGMINPSRQWQTLKQNTGIAHFEYQIRVTCDDHYYGFGCNKFCRPRDDFFGHYACDQNGNKTCMEGWMGPDCNKAICRQGCSPKHGSCKLPGDCRCQYGWQGLYCDKCIPHPGCVHGTCNEPWQCLCETNWGGQLCDKDLNYCGTHQPCLNRGTCSNTGPDKYQCSCPEGYSGPNCEIAEHACLSDPCHNRGSCKETSSGFECECSPGWTGPTCSTNIDDCSPNNCSHGGTCQDLVNGFKCVCPPQWTGKTCQLDANECEAKPCVNARSCKNLIASYYCDCLPGWMGQNCDININDCLGQCQNDASCRDLVNGYRCICPPGYAGDHCERDIDECASNPCLNGGHCQNEINRFQCLCPTGFSGNLCQLDIDYCEPNPCQNGAQCYNRASDYFCKCPEDYEGKNCSHLKDHCRTTTCEVIDSCTVAMASNDTPEGVRYISSNVCGPHGKCKSQSGGKFTCDCNKGFTGTYCHENINDCESNPCKNGGTCIDGVNSYKCICSDGWEGAHCENNINDCSQNPCHYGGTCRDLVNDFYCDCKNGWKGKTCHSRDSQCDEATCNNGGTCYDEVDTFKCMCPGGWEGTTCNIARNSSCLPNPCHNGGTCVVNGDSFTCVCKEGWEGPICTQNTNDCSPHPCYNSGTCVDGDNWYRCECAPGFAGPDCRININECQSSPCAFGATCVDEINGYQCICPPGHSGAKCHEVSGRSCITMGRVILDGAKWDDDCNTCQCLNGRVACSKVWCGPRPCRLHKSHNECPSGQSCIPVLDDQCFVRPCTGVGECRSSSLQPVKTKCTSDSYYQDNCANITFTFNKEMMSPGLTTEHICSELRNLNILKNVSAEYSIYIACEPSLSANNEIHVAISAEDIRDDGNPVKEITDKIIDLVSKRDGNSSLIAAVAEVRVQRRPLKNRTDFLVPLLSSVLTVAWVCCLVTAFYWCVRKRRKPSSHTHSAPEDNTTNNVREQLNQIKNPIEKHGANTVPIKDYENKNSKMSKIRTHNSEVEEDDMDKHQQKVRFAKQPVYTLVDREEKAPSGTPTKHPNWTNKQDNRDLESAQSLNRMEYIV
Take B2: in assay [1] (DLL added before Jagged in the first 3 days), the “effect on Hes5 expression” value is listed as “enhance Hes5 expression”. In assay [1] (ligand added at day 1), the “Hes5 expression relative to control” value is reported as 94.5 % of the control. In addition, the “cell number, mean ratio relative to control” value with NSCs [2] (Jagged present) was 1.14; in the assay with NSCs [2] (Jagged with DLL also added) it was 1.08. Further, the “cell number relative to control” value in the assay with NSCs [3] was 111.0 % of the control.
